Assay results published in publication PMC4002474, “Secretoglobin 1A1 and 1A1A Differentially Regulate Neutrophil Reactive Oxygen Species Production, Phagocytosis and Extracellular Trap Formation” (PLoS ONE, 2014).

Tests used:
[1] = target: equine recombinant SCGB 1A1A (horse (E. caballus)); experiment: non-reducing SDS-PAGE; purified recombinant protein run on SDS-PAGE in non-reducing conditions; dimers and monomers confirmed by Western blot under denaturing and mild reducing conditions
[2] = target: the molecule itself; experiment: as above

| Molecule | stoichiometry N [1] | stoichiometry N [2] |
| --- | --- | --- |
| equine recombinant SCGB 1A1A (natural protein) | 2 | – |
| equine recombinant SCGB 1A1 (secretoglobin family 1A member 1) (natural protein, horse (E. caballus), UniProt Q8MKG2 22-91, looked up, SCGB 1A1 of the horse (E. caballus), mature protein without the signal peptide, cDNA from equine lung, 100% identical to NCBI JQ906260.1; Cloned in pMAL-c5X, said to add no vector-derived residues after Factor Xa cleavage; Disulfide-dependent homodimer; also called club (Clara) cell secretory protein; CCSP; source: E. coli BL21 (NEB Express), purified (amylose column, Factor Xa, FPLC SuperDex …)) EICQSFADIIQGLFLGTPASFEAAVEPFKPDADMKAATTQLKTLVDFLPKNTKDSILKLMDKIAKSPLCA | – | 2 |
